The source of these data is paper PMC12510318.

What all share (assay): EMSA
What all share (details): EMSA: 6 ng 32P-satBaMV riboprobe, 2 U RNasin, 15 ul CAPS buffer (pH and salt not given), 20 min on ice; 4-12% NuPAGE in MES buffer at 4 C
In general terms: A gel shift assay detects complexes by their altered migration in electrophoresis.

Series [1] deals with rFIB (NbFIB2) WT (Nicotiana benthamiana).
In series [2] the test system is rFIB D227A (Nicotiana benthamiana).
Series [3] has as its system rFIB K134A (Nicotiana benthamiana).
In series [4] the test system is rFIB K256A (Nicotiana benthamiana).
For series [5], the system named is rFIB triple mutant (Nicotiana benthamiana).
Series [6] concerns rP20 WT (bamboo mosaic virus satellite RNA (satBaMV)).

As usually defined, the Kd is the free concentration of one partner at which half of the binding sites on the other are occupied at equilibrium, for simple one-to-one binding. Regarding satBaMV riboprobe, the dissociation constant (Kd) in series [1] was 0.05 µM; in series [2], 0.35 µM; in series [3], 0.14 µM; in series [4] it was 0.35 µM; in series [5], 1.23 µM; in series [6], 0.032 µM.
